The record followed here is US20230312755A1.

Assay [1] concerns the target human Sclerostin (human) (UniProt Q9BQB4). The assay can be described thus: cell-based or functional assay.
The target is the same in assay [2]. In words: BLI (Gator), antibody on anti-hFc biosensor, Sclerostin as analyte, 1:1 global fit.
Assay [3] deals with His-tagged human Sclerostin (NCBI reference No. NP_079513.1) (human) (UniProt Q9BQB4). In words: ELISA, plate coated with His-tagged human Sclerostin. A general note: An ELISA detects its analyte on a solid surface through an enzyme-linked reagent.
His-tagged human Sclerostin (NCBI reference No. NP_079513.1) (human), sequence (Q9BQB4 24-213 limits assumed): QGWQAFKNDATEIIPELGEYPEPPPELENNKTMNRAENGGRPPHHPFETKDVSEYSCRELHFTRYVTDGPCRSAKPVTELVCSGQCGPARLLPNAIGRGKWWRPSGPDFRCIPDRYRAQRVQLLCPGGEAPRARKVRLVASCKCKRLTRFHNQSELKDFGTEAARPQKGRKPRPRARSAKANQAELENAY

human Sclerostin (human), sequence (Q9BQB4 24-213 limits assumed): as above

B1: Romosozumab (antibody, INN chains, looked up, V domains shown)
VH: EVQLVQSGAEVKKPGASVKVSCKASGYTFTDYNMHWVRQAPGQGLEWMGEINPNSGGAGYNQKFKGRVTMTTDTSTSTAYMELRSLRSDDTAVYYCARLGYDDIYDDWYFDVWGQGTTVTVSS
VL: DIQMTQSPSSLSASVGDRVTITCRASQDISNYLNWYQQKPGKAPKLLIYYTSRLLSGVPSRFSGSGSGTDFTLTISSLQPEDFATYYCQQGDTLPYTFGGGTKVEIK
As a reminder, the Kd is the equilibrium constant for the complex coming apart. A high value points to weaker binding. As a reminder, the koff is a measure of how fast the partners let go of each other. High values mean a short-lived complex, low ones a long-lived complex. A word on the kon: it is the rate constant with which the complex forms. A lower kon goes with slower complex formation. A word on the EC50: it is the concentration at which the effect is half-maximal. Read a low EC50 as an effect from little substance. The molecule B1 yielded an EC50, Sclerostin-neutralisation activity in HEK293/TCF/LEF/Wnt1 cells (luciferase reporter) in the assay with human Sclerostin (human) [1] of 42.3 nM. Moreover, in the assay with human Sclerostin (human) [2], the Kd came out at 0.78 nM, the koff came out at 0.00028 s⁻¹ and the on-rate (kon) turned out to be 360000 M⁻¹ s⁻¹. The molecule further registered an EC50 in assay [3] of 0.11 nM.
